Laboratory results taken from the DeepSol protein solubility set.

Experiment: soluble on expression in E. coli; label from the status in PepcDB or PDB records

Sequence | soluble on expression in E. coli
MQYNPLGKTDLRVSRLCLGCMTFGEPDRGNHAWTLPEESSRPIIKRALEGGINFFDTANSYSDGSSEEIVGRALRDFARREDVVVATKVFHRVGDLPEGLSRAQILRSIDDSLRRLGMDYVDILQIHRWDYNTPIEETLEALNDVVKAGKARYIGASSMHASQFAQALELQKQHGWAQFVSMQDHYNLIYREEEREMLPLCYQEGVAVIPWSPLARGRLTRPWGETTARLVSDEVGKNLYKESDENDAQIAERLTGVSEELGATRAQVALAWLLSKPGIAAPIIGTSREEQLDELLNAVDITLKPEQIAELETPYKPHPVVGFK | soluble
MGSDKIHHHHHHMNNINEKSTYHHGDLRETLLVVATEMLQENGIKEVSLRKLASRVGVSRTAPYHHFKDKNALLCGMAEKGFEQLHQINKCGYEDGELSIREHFYRFIHDYIQFAHNNPDLYELMFGRTIWKDKSSTQELRDSAYPCFQFQVAMTQEWQKKGLFNVDDNALRVSQVLWGTVHGIAKLFIDGIYTDNSKIDEICDYAVSMFLSNSKK | not soluble
MGSDKIHHHHHHMGIYFNPGNGSFTKDKNSQLYIDKTGLIEYLNRVICTNANCISVSHARRFGKSHAAGMIDAYYSRGCDSSELFADSEIAAKDSYSAHLNKYNVIHIDVSSFWDAYKDNVIEKIQEYIYDELKQVYGDQIDYTKMISAVLMSVYNISDIPFVIIIDEWDCVIRNGGNKTLVHSYLQFLHLLFKSEESKTFLALAYITGILPIKKIKDESALNNFREFTMLKSKQLTRYFGFTEDEVKKLCITYDMDFESIKAWYNGYLIDGLHMYNPNSVVQAMLDHDYDFYWKNTSSFESINTFITMNYAGLKDDVLAMLSGDKIRVNVNTFQNDLTTVASKDDALTALIHLGYLAYDANRKMAYIPNYEVAAAYDLALQTGSWSEVANSISKCDELLDATLNEDADKVAELVEIAHETYTSVLKYNDENSLSCALTMAYFTANAYYNIVREFPAGKGFADLVFIPRANACGRPAIVIELKYNASADSAISQIKNRRYHGALSGYSNQILLVGINYSNTSDNKKHTCIIESINNLD | not soluble
MGEKIMKSMEIRSSEITTSGAGTLTGYVVRWDKLSELLWGEFYEKFQRGAFTEWLAAGNDVRGLYEHDHSMLLGRTRSGTLKLEEDETGLRFELTPPDTSTGRDVIELVKRGDISGMSFGFRSRKDVWDTTTDPCVRTVLVAELYEITVTSVPAYPDSGVELARRSLYEQHPEKMPRADNRRWWADLAGV | not soluble
MDVIKISPRGYCYGVVDAMVIAKNASLDKSLPRPIYILGMIVHNKHVTDAFEEEGILTLDGSNRLDILKQVDKGTVIFTAHGVSPEVRRIAEEKGLVAIDATCPDVTKTHNLILEMKEKGYHVIYIGKKGHPEPEGAVGVAPEIVHLVETEEDVKNLDIQSEKLIVTNQTTMSQWDVHDIMELVKEKYPHVEYHQEICLATQVRQEAVSEQAKKADLTIVVGDPKSNNSNRLAQVSEEIAGTKAYRIGDLSELKLEWLKGVNTVAVTAGASTPTPITKEVIRFLEQFDHEDPSTWTTEHNIPLKKILPKVKAKN | not soluble
MLEILYQDEWLVAVNKPSGWLVHRSWLDRDEKVVVMQTVRDQIGQHVFTAHRLDRPTSGVLLMGLSSEAGRLLAQQFEQHQIQKRYHAIVRGWLMEEAVLDYPLVEELDKIADKFAREDKGPQPAVTHYRGLATVEMPVATGRYPTTRYGLVELEPKTGRKHQLRRHLAHLRHPIIGDSKHGDLRQNRSGAEHFGLQRLMLHASQLSLTHPFTGEPLTIHAGLDDTWMQALSQFGWRGLLPENERVEFSAPSGQDGEISSLEHHHHHH | not soluble
MSVIKLKSKLKYCHYAYDDEGYVIHMLTSNERTFFTNAYIIETKNSIVVVDTLMVNSDAILLRQYMDNINKPLIAVIITHGHPDHYNGTEIITGFKEVPIISTKGIRDCIQDTVDSKEVKWKPYFGQDWPEHKILPNQLVIDSEVVNLDGLDYSFRDLGAAESSSDLFFTLGEKRSVIFVGDVVFNNMHGFMNDGNSAQWLKVLQKLLTEIADVKLLFTGHGDPGDTHQLVQRQIDYISHYRSNLLAIIRGNQLEHHHHHH | not soluble
MTIDRVCTIGPASNNKETLAKLINNGMKIVRLNLSHGTHESHKDIIRLVKSLDDSIKILGDVQGPKIRLGEIKGEQITLQAGDSFMLRTQPVTGSSTEASVDYEGIANDVKVGSRILMNDGEVELIVEKVSTDKIETKVKTGGNISSHKGVNLPGAIVSLPAITEKDKKDIQFLLEEDVDFIACSFVRKPSHIKEIRDFIQQYKETSPNLIAKIETMEAIENFQDICKEADGIMIARGDLGVELPYQFIPLLQKMMIQECNRTNTYVITATQMLQSMVDHSIPTRAEVTDVFQAVLDGTNAVMLSAESASGEHPVESVSTLRLVSEFAEHVKKDGPFVMKDVLELLHKSLDE | soluble
MRLTDQKRESIVQAAIAEFGDRGFEITSMDRIAARAEVSKRTVYNHFPSKEELFAEMLQRLWNCAPPQSEVVYRPLVSLREQLLELLWGKMRNLTDSSFLDLARVVVGATIHSPERAQVWLARINEREETFSAWIRAAQKDGRLKPVDPGFAATQMHALLKSFAFWPQVTFNAALLTPQEQSNVVESALNMFLGWYEIPG | soluble
DADLATGAKVFSANCAACHAGGINLVNAEKTLKKEALEKFGMNSIVAITTQVTNGKAGMPAFKGRLTDDQIAAVAAYVLDQAEKGW | soluble
MGSDKIHHHHHHMQSQELERIARQIRLRDVQAVFEAGAGHVGGEMSAIDIMTALYFRVLRIWPNDPKNPARDRFVLSKGHTACALYVTLAKRGFIPEEEISTFLQPNSRLNGHPNCNKVPGVETNTGPLGHGLPVAVGMATAAKLSGEDYHTYVMTGDGEMQEGSNWEAIMSAAQFKLNNLTLVIDHNRFQQGAAIADTNDVAPLRPKLEAFGWEVTEINGNAMAEVVPALEHRGNRPHCIVAHTNKGHGISFMQDRVDWHHKVPSKEQYEIAVKELSEAL | not soluble
PRVPSAGAAECKGEISNVQWKNDTNIKDGVFVGSYGQGADVQFDWKVDPGAKAGDQFTLKLPNELSRLGNKDLTLTAPSGEEVAKGTWDDVAKTWTFTLTDYANSHGDISGSAFFTVQWDRSVAQSNTQYPLTFSGCKGAGTLNGKTPEEGVGGTAQATSKTGLYDSKTDSARWNIYVETADTDIYTPVVVKDIGNTQLLFRCSDVKVFDRTPYPHTKIRDTPIDPNRWKCEEKDGGIIVSMVPDEHGRYLTAGQSLTIGFETPINDDTSRFITNKAIVEISPNKIENVEYSVDRGDAGGVGQGFQGKIKIQKEVVGETAPVQGNKFDFEYKCGETTQNISVAAGQTSDIFTQRSSSTCSITEKNVAEGVTVDFEVIDEETGKPAYVVPIDNGVTVKFNKNSSTTLNVKVTNTYPNKPEAKKGKFVIKKTVNGLDAGQKDKAFKFNYTCKAPDGDAYTEPQLAEVTAGRTWQSGNYPEGTICTIEEDLESAKVPGYSLISAQPKGDVTIKAEGTEGSPVEFAATNSYTKDLGSFSVQKKIEASAEAMPLLKDQEFGFKYTCGADKGEFKLKNGETKKVERIATGTKCTVEESDAKVPNGFMWTGKIEGTDLDPNDFTIVKDKTLAFTATNTYKQQYGGFTLSKNVTGDATNLEELQKRSYTFNYTCTAPTGTVLKDKVEITEETPKAIGNIPAASTCKVTEVEAPAKDTDWTVDLSVNGTWVGETAEFKVPAEGEPSISILAKNNYRQHKGSFTIEKIVDASEGIVTPKEFTFTWQCGEDKGAETVRVTNGKGRVEIDRAFPVGTKCSVKELEAEAEDARLITSWENQEFTIDKDKQHVIVSATNTYRYAESKVKIVKKLEGPAKDKAKDKTFTFDYSCVVNNEAIEGSVNITGEGATEIPESFPAGTKCTITERDASISGTTWTHRIAEDGQITIQSPAKVYQVGVTNAYSKPGFP | not soluble
MFNGEKVTLLEMLDAREQRAATQKELLETAPEASLLSATMNIPGEVKNSPTLTAVFLEVIDEVEQQLLDQVPIVNFYRNEKTGPEYYLAVSLAPQELKQRMVKIEETHPYGRLVDLDVLWGNEELKSLHRGDLGLPPRRCFICQEVAKVCGRNRRHSLEAMQEKITEIILTRKEQPSE | not soluble
MSLTNSSNLIDGIEVYVLNNPKDVKPHWVSHFIVPTANELLIKIKTKNGNSGFGVATSYTDIKPIIKPFTNGLQDLVIGEDPFCPEKIYDKIFKLTDTRMSSEKGWSREALIRISAALDIACWDLIGKAANIPLYKLFGGYRNQIPVYVTCAYYRDGKDEIELRDELKKLIDIGHQSFKVKVGGLSIKEDAKRLETIRNEIGNQKDLMIDVNRAWDLKTAIEGVKEFKKFNPIWIEEPVRWEDDRRNLKLLSKQTDIPLSGGESEITIHGCRSMIEEEAIQILQFDCTMFGGFTNGKKLSALCEINHIDIAPHHDCYIHAPLVASSPSGRIVESFDDERDPIQSELFENQHKMSNGWIYLNENPGLGFDISEAALKKFGKLVYKKEGHHHHHH | soluble
MAEHPIQGLMETAMESIKEMVDVNTIVGDAVQAPDGTVIIPISKVTFGFAAGGGEFASCCSVDEKGEDSSDDSSKPEIKFPFAGGSGAGVSINPVAFMVVGQGQIKLLPVNINSSLEKILDLIPEIIEKTKDSVKKNLKVKKEIKPGNGESCAKSSKEDENELEHHHHHH | soluble
MKGFGMFRFRRTFVPQIDMRNCGVAALASVAKYYGSDYSLAHLRELAKTNKEGTTALGLVEAAKKIGFETRAIKAEMSLFEMEDVPYPFIAHVNKDGKLQHYYVIYKSTKDYLIIGDPDPSVKVTKMTKERFEKEWTGVTLFMGPEPS | not soluble
MKMKKKKRKMFDVFEHVLNQIVGNGVLLLRRIVIDRSKQHKHFHLIMTYKCIFVVAQHTLVDRLESDNNGEQKFQKLCFI | not soluble
SAQKPKVDPHVGRLGYLQALVTEFQETQSQDAKEQVLANLANFAYDPSNYEYLRQLQVLDLFLDSLSEENETLVEFAIGGLCNLCPDRANKEHILHAGGVPLIINCLSSPNEETVLSAITTLMHLSPPGRSFLPELTATPVVQCMLRFSLSASARLRNLAQIFLEDFCSPRQVAEARSRQAHSALGIPLPRSVAPRQR | soluble
MLFLDKNLELNDTELDIYNYIVANLEKVVYMRIRDLATEAHVSTTTILRFCRKFGCNGFSEFRVKLQLYLEEQKLAQIDMADETTYIDFLKRTAQPEFKAQIQNAVEILRDRELVLFAGVGSSGVIAEYGAIYFSSLFTLALHIEDPLNHPFYHLSSKLSDKICMIAISVEGENEDIIRYIHQLKAQNCKVISITNSAKSTIARLSDANIAYYINKEMYQEANITSQLPALYTIENIAREIRTQIDKEKM | not soluble
MTLGLKDLYYAVCTEADGAESYGTPKKMAEAMSADLSVKTADGSLYADDTLSESVTEFASGTLKLGIKDLTPEVLAELLGQAVDKNSVVWAGKEDEPPYVAVGFRAKKTGGKYRYVWLLKAKFKVPSEKYETKGESIKFNTPDIEASFTTRKKDNLWKADFVGTEESAAAKTWFTAVPEKAAAMESVLEHHHHHH | soluble
MILKLKYYREAMNLTQEELARHAKVSVAMVQSMENGRRKGSTDTILKLSDALNVTVDDLLRGNNMTISHKKETSK | not soluble
